Measured values published in patent publication US20200148732A1 (UNIVERSITY OF COPENHAGEN, published 2020).
Where no end group is shown, it is not given here.

T1: TONSL acidic stretch and ARD (aa. 450-692) (human, UniProt Q96HA7 450-692)
T1 sequence: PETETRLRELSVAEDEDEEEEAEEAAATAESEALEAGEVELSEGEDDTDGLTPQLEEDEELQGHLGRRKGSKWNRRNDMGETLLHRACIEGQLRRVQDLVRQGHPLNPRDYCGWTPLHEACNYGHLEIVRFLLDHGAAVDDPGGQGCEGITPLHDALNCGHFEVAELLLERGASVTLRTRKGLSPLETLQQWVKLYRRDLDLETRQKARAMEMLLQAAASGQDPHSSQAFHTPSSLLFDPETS

T2: TONSL Ankyrin Repeat Domain (ARD, residues 512-692), purified recombinant (human, UniProt Q96HA7 512-692)
T2 construct: Expressed as a GST fusion in E. coli; Used in ITC, peptide pull-down and native MS; also called TONSL ARD; TONSL-ARD
T2 sequence: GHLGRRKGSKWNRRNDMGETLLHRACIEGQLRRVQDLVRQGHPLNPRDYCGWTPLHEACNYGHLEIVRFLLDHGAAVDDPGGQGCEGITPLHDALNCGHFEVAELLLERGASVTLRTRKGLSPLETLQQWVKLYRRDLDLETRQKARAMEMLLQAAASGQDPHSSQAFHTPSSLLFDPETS


Experiments:
[1] = target: T1, TONSL acidic stretch and ARD (aa. …); assay: ITC, peptide injected into TONSL (450-692); the value stands without a heading in the legend box, in the column where the other peptide has NB
[2] = target: T2, TONSL Ankyrin Repeat Domain (ARD, …); assay: ITC, peptide injected into TONSL ARD
[3] = target: T3, MCM2 Histone-binding Domain (HBD, residues 61-130) (human, UniProt P49736 61-130); assay: GST pull-down of recombinant H3-H4 and MCM2 HBD with GST-TONSL ARD, stained gel (MCM2 HBD offered together with H3-H4)
T3 construct: In the crystal it is linked to TONSL ARD by the G4 linker; also called MCM2 HBD

[4] = target: T2, TONSL Ankyrin Repeat Domain (ARD, …); assay: native MS, titration Kd (constant peptide to protein ratio, decreasing protein concentration); Titration Kd; no apparent Kd given for Example 11
Protocol: (§1) The mass spectrometry (MS) analysis were carried out on an electrospray time-of-flight mass spectrometer (LCT, Waters, Manchester, UK) equipped with an automated chip-based nanoESI device (Triversa Nanomate, Advion Biosciences, Ithaca, N.Y.). External calibration was done in the positive ion mode over the mass range m/z 200-6000 using the multiply charged ions produced by 0.4 μM horse heart myoglobin solution diluted in water/acetonitrile 50/50 mixture acidified with 0.5% (v/v) formic acid. […] […] Incubations were performed at room temperature for 15 min. Mass spectra were recorded using reduced cone voltage (Vc=50 V) and elevated interface pressure (Pi=5 mbar) which correspond to fine-tuned instrumental settings providing sufficient ion desolvation while preserving the integrity of weak non-covalent complexes in the gas phase. Micromass MassLynx 4.1 was used for data acquisition and processing.
(§2) This protein proportion is used to calculate the bound protein, the free protein and the free peptide concentrations. The Kd is calculated by using the following equation for each protein/peptide concentration. The final Kd for each peptide is the average of the Kd at different protein/peptide ratio.

[5] = target: T2, TONSL Ankyrin Repeat Domain (ARD, …); assay: native MS, apparent Kd
[6] = target: T2, TONSL Ankyrin Repeat Domain (ARD, …); assay: native MS, abundance of the 1:1 protein-peptide complex, 10 µM TONSL ARD
Protocol: The mass spectrometry (MS) analysis were carried out on an electrospray time-of-flight mass spectrometer (LCT, Waters, Manchester, UK) equipped with an automated chip-based nanoESI device (Triversa Nanomate, Advion Biosciences, Ithaca, N.Y.). External calibration was done in the positive ion mode over the mass range m/z 200-6000 using the multiply charged ions produced by 0.4 μM horse heart myoglobin solution diluted in water/acetonitrile 50/50 mixture acidified with 0.5% (v/v) formic acid. […] The protein concentration was set to 10 μM and different peptide concentrations ranging from 1 to 5 molar equivalents were added. Incubations were performed at room temperature for 15 min. Mass spectra were recorded using reduced cone voltage (Vc=50 V) and elevated interface pressure (Pi=5 mbar) which correspond to fine-tuned instrumental settings providing sufficient ion desolvation while preserving the integrity of weak non-covalent complexes in the gas phase. Micromass MassLynx 4.1 was used for data acquisition and processing.
The proportion of 1:1 stoichiometry complex is calculated according to the following equation: […]

[7] = target: T2, TONSL Ankyrin Repeat Domain (ARD, …); assay: native MS, titration Kd (constant peptide to protein ratio, decreasing protein concentration)
Protocol: as §1, §2

T3 sequence (P49736 61-130): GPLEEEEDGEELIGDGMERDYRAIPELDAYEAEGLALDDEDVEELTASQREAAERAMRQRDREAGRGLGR

Binder | binding result [3] | Kd [5] | % P1L1 [6] | also measured
GLGKGGAKRHRKVLRDN (Synthesised at Tufts University Core Facility; also called H4 (9-25); H4 tail (9-25)) [histone H4 (residues 9-25) peptide, unmodified] | – | – | – | Kd [1]: 1500 nM
GLGKGGAKRWRKVLRDN (His18 mutated to Trp18) [histone H4 (residues 9-25) peptide H18W] | – | – | – | binding result [2]: no binding (tested: molar ratio about 1.8)
GST-TONSL ARD D559A (other, not shown: GST tag of the pGEX-6P-1 vector) GHLGRRKGSKWNRRNDMGETLLHRACIEGQLRRVQDLVRQGHPLNPRAYCGWTPLHEACNYGHLEIVRFLLDHGAAVDDPGGQGCEGITPLHDALNCGHFEVAELLLERGASVTLRTRKGLSPLETLQQWVKLYRRDLDLETRQKARAMEMLLQAAASGQDPHSSQAFHTPSSLLFDPETS | no binding | – | – | –
GST-TONSL ARD D604A (other, not shown: GST tag of the pGEX-6P-1 vector) GHLGRRKGSKWNRRNDMGETLLHRACIEGQLRRVQDLVRQGHPLNPRDYCGWTPLHEACNYGHLEIVRFLLDHGAAVDDPGGQGCEGITPLHAALNCGHFEVAELLLERGASVTLRTRKGLSPLETLQQWVKLYRRDLDLETRQKARAMEMLLQAAASGQDPHSSQAFHTPSSLLFDPETS | no binding | – | – | –
GST-TONSL ARD E530A (other, not shown: GST tag of the pGEX-6P-1 vector) GHLGRRKGSKWNRRNDMGATLLHRACIEGQLRRVQDLVRQGHPLNPRDYCGWTPLHEACNYGHLEIVRFLLDHGAAVDDPGGQGCEGITPLHDALNCGHFEVAELLLERGASVTLRTRKGLSPLETLQQWVKLYRRDLDLETRQKARAMEMLLQAAASGQDPHSSQAFHTPSSLLFDPETS | no binding | – | – | –
GST-TONSL ARD E568A (other, not shown: GST tag of the pGEX-6P-1 vector) GHLGRRKGSKWNRRNDMGETLLHRACIEGQLRRVQDLVRQGHPLNPRDYCGWTPLHAACNYGHLEIVRFLLDHGAAVDDPGGQGCEGITPLHDALNCGHFEVAELLLERGASVTLRTRKGLSPLETLQQWVKLYRRDLDLETRQKARAMEMLLQAAASGQDPHSSQAFHTPSSLLFDPETS | no binding | – | – | –
GST-TONSL ARD N571A (other, not shown: GST tag of the pGEX-6P-1 vector) GHLGRRKGSKWNRRNDMGETLLHRACIEGQLRRVQDLVRQGHPLNPRDYCGWTPLHEACAYGHLEIVRFLLDHGAAVDDPGGQGCEGITPLHDALNCGHFEVAELLLERGASVTLRTRKGLSPLETLQQWVKLYRRDLDLETRQKARAMEMLLQAAASGQDPHSSQAFHTPSSLLFDPETS | no binding | – | – | –
GST-TONSL ARD W563A (other, not shown: GST tag of the pGEX-6P-1 vector) GHLGRRKGSKWNRRNDMGETLLHRACIEGQLRRVQDLVRQGHPLNPRDYCGATPLHEACNYGHLEIVRFLLDHGAAVDDPGGQGCEGITPLHDALNCGHFEVAELLLERGASVTLRTRKGLSPLETLQQWVKLYRRDLDLETRQKARAMEMLLQAAASGQDPHSSQAFHTPSSLLFDPETS | no binding | – | – | –
LGKGGAKRHRKVLRDNI (C-terminal amide (-NH2), Bought from JPT Peptide Technologies) | – | – | – | Kd [4]: 77 nM
KGGAKRHRKVLR-NH2 [Lys-Gly-Gly-Ala-Lys-Arg-His-Arg-Lys-Val-Leu-Arg-NH2, Example 13] | – | 100 nM | 89.9% | Kd [7]: 310 nM
KGGAARHRKVLR-NH2 (H4 12-23 with Lys16 replaced by Ala) [Lys-Gly-Gly-Ala-Ala-Arg-His-Arg-Lys-Val-Leu-Arg-NH2, Example 15] | – | 400 nM | 81.4% | –
KGGAKRHAKVLR-NH2 (H4 12-23 with Arg19 replaced by Ala) [Lys-Gly-Gly-Ala-Lys-Arg-His-Ala-Lys-Val-Leu-Arg-NH2, Example 14] | – | 1000 nM | 73.3% | Kd [7]: 960 nM
AKRHRKVLR-NH2 [Ala-Lys-Arg-His-Arg-Lys-Val-Leu-Arg-NH2, Example 12] | – | 2200 nM | 62.6% | Kd [7]: 1950 nM
